Reference: doi:10.1101/2022.10.18.512811 (bioRxiv, 2022)
Read-outs that look alike come from different tables or passages of the source.

Legend:
[1] = target: His-tagged NlpE N-terminal domain (E. coli); assay: cross-linking
[2] = target: the molecule itself; assay: dimer band on denaturing SDS-PAGE
[3] = target: the molecule itself; assay: dimer band on denaturing SDS-PAGE; remark: listed apart in the source

Molecule: His-tagged NlpE N-terminal domain (domain or fragment)
- stoichiometry N [1]: 2

B1: C-terminally His-tagged WT NlpE expressed from pTrc99A (natural protein, E. coli, UniProt P40710 21-236, looked up)
chain: CNNRAEVDTLSPAQAAELKPMPQSWRGVLPCADCEGIETSLFLEKDGTWVMNERYLGAREEPSSFASYGTWARTADKLVLTDSKGEKSYYRAKGDALEMLDREGNPIESQFNYTLEAAQSSLPMTPMTLRGMYFYMADAATFTDCATGKRFMVANNAELERSYLAARGHSEKPVLLSVEGHFTLEGNPDTGAPTKVLAPDTAGKFYPNQDCSSLGQ
modifications: lipid-modified N-terminal cysteine (Cys21)
- stoichiometry N [2]: 2

B2: purified, soluble, C-terminal His×6-tagged NlpE (natural protein, E. coli, UniProt P40710 21-236, looked up)
chain: B1 chain
- stoichiometry N [3]: 2
